Source: publication doi:10.1101/2022.02.15.480544 (bioRxiv, 2022)
Substitutions are numbered along the chain they refer to. Numbers in names are those of the source.

B1: Bacillus subtilis RecA, wild type, hexa-histidine fusion (natural protein, B. subtilis, UniProt P16971 11-348, looked up)
chain: ALKQIEKQFGKGSIMKLGEKTDTRISTVPSGSLALDTALGIGGYPRGRIIEVYGPESSGKTTVALHAIAEVQQQGGQAAFIDAEHALDPVYAQKLGVNIEELLLSQPDTGEQALEIAEALVRSGAVDIVVVDSVAALVPKAEIEGDMGDSHVGLQARLMSQALRKLSGAINKSKTIAIFINQIREKVGVMFGNPETTPGGRALKFYSSVRLEVRRAEQLKQGNDVMGNKTKIKVVKNKVAPPFRTAEVDIMYGEGISKEGEIIDLGTELDIVQKSGSWYSYEEERLGQGRENAKQFLKENKDIMLMIQEQIREHYGLDNNGVVQQQAEETQEELEFEE
B2: Bacillus subtilis RecA K70A (Walker A mutant, lowered ATP binding), hexa-histidine fusion (natural protein, B. subtilis, UniProt P16971 11-348, looked up)
chain: B1 chain with K60A
B3: Bacillus subtilis RecA K70R (Walker A mutant, no ATPase activity), hexa-histidine fusion (natural protein, B. subtilis, UniProt P16971 11-348, looked up)
chain: B1 chain with K60R

Target: the molecule itself
Assay: mass photometry

Q: Which “stoichiometry N” value does the source give for B1 here?
A: 2

Q: For B2, which “stoichiometry N” value is on record?
A: 2

Q: B3 was tested. Which “stoichiometry N” value did it give?
A: 2
